Measurements from article PMC5376975, “Structural studies of RFCC tf18 reveal a novel chromatin recruitment role for Dcc1”.

Columns and labels:
Dcc1 triple mutant = target: T1, Dcc1 triple mutant (Saccharomyces cerevisiae, UniProt P25559 90-380, K364A;R367A;R380A); assay: EMSA; EMSA, 6% native gel in 0.5x TBE, 4 C, DNA 1 uM unless stated; binding buffer, salt and pH not stated (protein storage 10 mM Tris pH 7.5, 150 mM NaCl, 0.5 mM TCEP for the complex); settings: protein: recombinant
T1 sequence: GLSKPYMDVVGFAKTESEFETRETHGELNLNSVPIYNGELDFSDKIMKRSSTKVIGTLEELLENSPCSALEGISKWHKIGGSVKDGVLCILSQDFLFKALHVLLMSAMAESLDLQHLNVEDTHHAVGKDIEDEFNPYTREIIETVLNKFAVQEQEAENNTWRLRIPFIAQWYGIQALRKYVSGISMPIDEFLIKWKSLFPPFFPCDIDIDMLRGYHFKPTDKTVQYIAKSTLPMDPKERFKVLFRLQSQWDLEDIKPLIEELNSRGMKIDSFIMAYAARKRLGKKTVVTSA

Dcc1 dWH3 = target: T2, Dcc1 dWH3 (Saccharomyces cerevisiae, UniProt P25559 90-318, del319-380); assay: EMSA; also none at reduced DNA, overexposed gel; EMSA, 6% native gel in 0.5x TBE, 4 C, DNA 1 uM unless stated; binding buffer, salt and pH not stated (protein storage 10 mM Tris pH 7.5, 150 mM NaCl, 0.5 mM TCEP for the complex); settings: protein: recombinant; label: 5' 6-FAM on sense strand
T2 sequence: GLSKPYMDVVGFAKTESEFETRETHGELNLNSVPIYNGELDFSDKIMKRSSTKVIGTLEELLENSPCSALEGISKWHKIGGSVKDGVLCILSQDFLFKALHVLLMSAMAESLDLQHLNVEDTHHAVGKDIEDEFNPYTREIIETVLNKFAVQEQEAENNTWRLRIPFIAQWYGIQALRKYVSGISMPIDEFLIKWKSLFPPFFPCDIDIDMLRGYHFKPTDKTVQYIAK

Binder | binding result (Dcc1 triple mutant; label: 5' 6-FAM) | binding result (Dcc1 dWH3) | binding result (Dcc1 triple mutant; label: 5' 6-FAM on sense strand)
TTTTTTTTTTTTTTTTTTTTTTTTT (ssDNA) [25-mer oligo d(T)] | no binding |  | 
22-mer dsDNA (dsDNA) DNA 1: TCTCCACAGGAAACGGAGGGGT DNA 2: ACCCCTCCGTTTCCTGTGGAGA |  | no binding | no binding
